Laboratory results: paper PMC9257651

Assays:
[1] = target: ClpP2 co-expressed with ClpP1 in E. coli (L. monocytogenes); assay: SEC
[2] = target: C-terminally myc-tagged ClpP2 (ClpP2-2×myc) (L. monocytogenes (endogenous gene in L. monocytogenes EGD-e)); assay: affinity purification with mass spectrometry
[3] = target: ClpP1 co-expressed with ClpP2 in E. coli (L. monocytogenes); assay: SEC
[4] = target: Full-length ClpP2 with a C-terminal Strep-tag II (tetradecamer, ClpP2_(14)) (L. monocytogenes); assay: SEC + other: intact protein mass spectrometry

Substance: ClpP2 co-expressed with ClpP1 in E. coli (enzyme)
- stoichiometry N [1]: 14

Substance: ClpP1, endogenous in L. monocytogenes (enzyme)
- fold enrichment at 42 °C against 20 °C [2]: 6 fold

Substance: ClpP1 co-expressed with ClpP2 in E. coli (enzyme)
- stoichiometry N [3]: 7

Substance: ClpP1 with a C-terminal Strep-tag II (heptamer, ClpP1_(7)) (enzyme)
- percent ClpP1 in the tetradecamer peak (intact protein MS) [4]: 47 to 49%

Substance: Full-length ClpP2 with a C-terminal Strep-tag II (tetradecamer, ClpP2_(14)) (enzyme)
- stoichiometry N [4]: 14
